# Source: paper PMC1794554, “Multiplatform genome-wide identification and modeling of functional human estrogen receptor binding sites”
# Changes are numbered by the printed parent chain.
# B1: GREB1 ERE wildtype (dsDNA)
# DNA 1: TGTGGCAACTGGGTCATTCTGACCTAGAAGCAAC
# DNA 2: GTTGCTTCTAGGTCAGAATGACCCAGTTGCCACA
# B2: mutant 1 (conserved 3' G to A) (dsDNA)
# DNA 1: B1 DNA 1 with G27A
# DNA 2: B1 DNA 2 with C8T
# B3: mutant 4 (outside the 3-bp flank, C to G) (dsDNA)
# DNA 1: B1 DNA 1 with C6G
# DNA 2: B1 DNA 2 with G29C
# Tests used:
# Conditions in all cases: chain copies: 2; label: 5'-biotin on the ERE strand; blunt
# [1] = biological target: T1, estrogen receptor alpha (ERα), purified (UniProt P03372 1-595); experiment: SPR; SPR: 40 mM HEPES-KOH pH 7.4, 10 mM MgCl2, 200 mM KCl, 0.2% Triton X-100, 2 mM DTT, room temperature; ERα 58-708 nM (relative binding averaged over concentrations)
# T1 sequence (P03372 whole entry): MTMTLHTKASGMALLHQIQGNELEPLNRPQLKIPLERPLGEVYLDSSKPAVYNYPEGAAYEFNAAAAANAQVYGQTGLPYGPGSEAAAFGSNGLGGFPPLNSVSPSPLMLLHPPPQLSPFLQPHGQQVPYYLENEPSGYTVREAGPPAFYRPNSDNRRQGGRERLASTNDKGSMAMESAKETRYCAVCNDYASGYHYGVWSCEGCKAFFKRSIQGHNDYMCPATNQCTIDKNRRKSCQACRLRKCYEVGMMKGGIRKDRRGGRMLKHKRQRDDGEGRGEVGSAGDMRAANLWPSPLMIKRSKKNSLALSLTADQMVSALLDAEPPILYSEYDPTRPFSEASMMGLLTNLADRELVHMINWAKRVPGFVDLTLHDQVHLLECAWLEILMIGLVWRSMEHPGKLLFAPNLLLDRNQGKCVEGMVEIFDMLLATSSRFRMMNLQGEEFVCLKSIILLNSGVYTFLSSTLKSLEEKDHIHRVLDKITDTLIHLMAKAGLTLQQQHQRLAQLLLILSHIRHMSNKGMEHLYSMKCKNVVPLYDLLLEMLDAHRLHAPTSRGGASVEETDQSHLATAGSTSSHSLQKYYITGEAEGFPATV
# [2] = biological target: T1, estrogen receptor alpha (ERα), purified; experiment: SPR; binding disrupted by about 40%; SPR: 40 mM HEPES-KOH pH 7.4, 10 mM MgCl2, 200 mM KCl, 0.2% Triton X-100, 2 mM DTT, room temperature; ERα 58-708 nM (relative binding averaged over concentrations)
# [3] = biological target: T1, estrogen receptor alpha (ERα), purified; experiment: SPR; not significantly perturbed; SPR: 40 mM HEPES-KOH pH 7.4, 10 mM MgCl2, 200 mM KCl, 0.2% Triton X-100, 2 mM DTT, room temperature; ERα 58-708 nM (relative binding averaged over concentrations)
binder,measurement,setting,value
B1,binding signal,[1],100 % of wild type
B2,binding signal,[2],~60 % of wild type
B3,binding result,[3],binds
